Columns and labels:
[1] = target: T1, mouse NGF (m-NGF, Alomone) (mouse, UniProt P01139 122-241); experiment: SPR (BIAcore 2000), antibody amine-coupled on CM5 chip, m-NGF injected
T1 construct: mature; Commercial m-NGF
Method: For m-NGF binding, the immobilization of the antibody was of 3000 resonance units (RU) in the experiment of panel A and of 6000 RU in the experiment of panel B. The injected concentrations of the m-NGF are indicated on top of each curve. From a complete analysis of the data, the affinity parameters were evaluated, and resulted to be the following.
(§1) Experiments were performed on CM5 chips with amine coupling, using a BIAcore 2000 machine. Coupling was performed with a specific kit purchased at BIAcore and the coupling reaction was carried out according to manufacturer's instructions.
(§2) Anti-NGF antibodies were immobilized on chip, while mouse NGF (m-NGF, Alomone) or recombinant mouse proNGF (rm-proNGF) were injected at decreasing concentrations to obtain binding curves.

[2] = target: T2, recombinant mouse proNGF (rm-proNGF) (mouse, UniProt P01139 19-241); experiment: SPR (BIAcore 2000), antibody amine-coupled on CM5 chip (3000 RU), rm-proNGF injected, kinetic analysis
Method: The injected concentrations of the rm-proNGF are indicated on top of each curve.
as §1, §2

[3] = target: T2, recombinant mouse proNGF (rm-proNGF); experiment: SPR (BIAcore), antibody immobilized

T2 sequence (P01139 19-241): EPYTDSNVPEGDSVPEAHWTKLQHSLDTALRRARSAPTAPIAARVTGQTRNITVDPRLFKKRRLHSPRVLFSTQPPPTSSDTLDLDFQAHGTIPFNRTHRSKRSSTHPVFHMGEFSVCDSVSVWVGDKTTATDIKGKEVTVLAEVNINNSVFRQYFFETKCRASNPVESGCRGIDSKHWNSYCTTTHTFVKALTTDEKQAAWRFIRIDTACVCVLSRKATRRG
T1 sequence (P01139 122-241 limits assumed): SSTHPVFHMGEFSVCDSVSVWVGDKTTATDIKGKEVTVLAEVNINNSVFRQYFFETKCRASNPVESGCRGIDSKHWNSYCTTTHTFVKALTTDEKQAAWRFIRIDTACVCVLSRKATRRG

Row | Binder | Kd [1] [nM] | Ka [2] [M⁻¹] | Kd [2] [nM] | binding result [3]
1 | αD11 anti-NGF antibody (antibody, V domains shown, Rat monoclonal antibody purified from hybridoma supernatant; the constant regions are not; also called alphaD11; aD11) VH: QVQLKESGPGLVQPSQTLSLTCTVSGFSLTNNNVNWVRQATGRGLEWMGGVWAGGATDYNSALKSRLTITRDTSKSQVFLKMHSLQSEDTATYYCARDGGYSSSTLYAMDAWGQGTTVTVSA VL: DIQMTQSPASLSASLGETVTIECRASEDIYNALAWYQQKPGKSPQLLIYNTDTLHTGVPSRFSGSGSGTQYSLKINSLQSEDVASYFCQHYFHYPRTFGGGTKLELK | 0.0028 | 1.2e+09 | 1.9 | 
2 | Hu-αD11 (humanized variant of the αD11 anti-NGF antibody) (antibody, V domains shown, also called Hu-alphaD11; Hu-aD11) VH: EVQLVESGGGLVQPGGSLRLSCAASGFSLTNNNVNWVRQAPGKGLEWVGGVWAGGATDYNSALKSRFTISRDNSKNTAYLQMNSLRAEDTAVYYCARDGGYSSSTLYAMDAWGQGTLVTVSS VL: DIQMTQSPSSLSASVGDRVTITCRASEDIYNALAWYQQKPGKAPKLLIYNTDTLHTGVPSRFSGSGSGTDYTLTISSLQPEDFATYFCQHYFHYPRTFGQGTKVEIK |  |  |  | binds

Reference: patent publication US20090208490A1 (AbbVie / Abbott, published 2009)
